Reference: article PMC11518761, “Making the effect visible – OX40 targeting nanobodies for in vivo imaging of activated T cells” (Frontiers in Immunology, 2024)
Values belong to the binder of their own block, whether it stands above or below them.

Legend:
[1] = target: T1, recombinant hOX40, extracellular part (Leu 29 - Ala 216) (human, UniProt P43489 29-216); assay: BLI
T1 chain: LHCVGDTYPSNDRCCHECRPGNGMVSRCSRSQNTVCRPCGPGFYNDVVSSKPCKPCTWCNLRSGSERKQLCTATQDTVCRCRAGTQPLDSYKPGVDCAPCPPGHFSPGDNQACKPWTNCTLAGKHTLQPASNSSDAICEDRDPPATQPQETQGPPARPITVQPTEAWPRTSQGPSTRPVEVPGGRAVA

[2] = target: T2, recombinant hOX40, extracellular part (Leu 29 - Ala 216) (human, UniProt P43489); assay: BLI; biotinylated Nb (5 µg/mL) immobilised on streptavidin biosensors; hOX40 dilution series 0.2 nM - 320 nM, association 300 s, dissociation 720 s; Octet buffer (PBS, 0.1% BSA, 0.02% Tween20); 1:1 ligand-binding model, global fitting; settings: both partners purified
T2 construct: human OX40 (CD134/TNFRSF4), extracellular part, Leu29 to Ala216; The limits are stated for the immunogen; the BLI methods say only 'hOX40' / 'recombinant hOX40'; also called CD134; TNFRSF4; source: bought: Acrobiosystems, produced in human HEK293 cells

[3] = target: T3, hOX40 full length on U2OS cells (U2OS-hOX40) (human, UniProt P43489 29-277); assay: FACS
T3 chain: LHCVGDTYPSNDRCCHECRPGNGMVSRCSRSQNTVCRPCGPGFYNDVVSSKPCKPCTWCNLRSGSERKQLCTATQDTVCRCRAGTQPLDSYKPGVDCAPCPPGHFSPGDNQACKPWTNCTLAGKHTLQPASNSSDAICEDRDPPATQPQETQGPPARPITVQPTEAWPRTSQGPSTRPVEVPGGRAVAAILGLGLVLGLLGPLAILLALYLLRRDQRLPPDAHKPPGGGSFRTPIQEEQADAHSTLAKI

[4] = target: T4, murine OX40 on U2OS cells (Mus musculus, UniProt P47741); assay: immunostaining of cells or tissue; live-cell immunofluorescence of U2OS cells expressing hOX40 (stable) or murine OX40 (transient) with 10 -1000 nM AF647-labeled Nbs, 30 min, 4°C; settings: one partner purified
T4 construct: murine OX40, DNA bought from Sino Biological (Catalog Number MG50808-NM); The catalogue suffix -NM may denote an N-terminal Myc tag (surmised); also called mOX40; source: U2OS cells, transiently transfected, on the cell surface
T4 sequence (P47741 20-272): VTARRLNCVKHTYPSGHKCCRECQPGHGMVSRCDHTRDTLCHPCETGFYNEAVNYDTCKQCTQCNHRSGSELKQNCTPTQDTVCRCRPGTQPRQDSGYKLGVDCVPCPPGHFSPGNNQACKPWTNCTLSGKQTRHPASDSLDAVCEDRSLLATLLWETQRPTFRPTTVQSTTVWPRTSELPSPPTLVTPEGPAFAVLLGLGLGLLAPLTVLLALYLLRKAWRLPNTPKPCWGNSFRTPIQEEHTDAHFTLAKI

[5] = target: T1, recombinant hOX40, extracellular part …; assay: BLI
[6] = target: T5, human OX40 on HT1080 cells (HT1080-hOX40) (Homo sapiens, UniProt P43489); assay: in vivo optical imaging; 5 µg O18-AF647 i.v. in CD1 nude mice with subcutaneous HT1080-hOX40 or HT1080-WT tumors; imaging over 6 h and ex vivo imaging of explanted tumors; settings: one partner purified
T5 construct: human OX40 (CD134/TNFRSF4); the construct used for HT1080 cells is not described; source: HT1080 cells stably expressing human OX40, as subcutaneous xenograft tumors in CD1 nude mice

[7] = target: T6, hOX40 full length on U2OS cells (U2OS-hOX40) (Homo sapiens, UniProt P43489); assay: flow cytometry on cells; U2OS-hOX40 cells with dilution series of AF647-labeled Nbs (O12, O18 from 2.5 µM; O7, O19 from 10 µM), 4°C, 30 min, FACS buffer; KD as half-maximum binding at equilibrium, four-parametric sigmoidal model; settings: one partner purified
T6 construct: human OX40 (CD134/TNFRSF4), cDNA GenBank NM_003327.3 in an IRES-eGFP/Blasticidin S deaminase vector; Also used as the target of the functional rows, where hOX40 stood on Jurkat-based OX40 effector cells (Promega); also called cellular expressed hOX40; hOX40 full length (D1-4); source: U2OS cells stably overexpressing hOX40, on the cell surface

[8] = target: T7, endogenous hOX40 on activated human T cells (Homo sapiens, UniProt P43489); assay: flow cytometry on cells; hPBMCs of three donors after 24 h PHA-L/IL-2 stimulation, AF647-labeled Nbs (200 nM; 400 nM for T cell subpopulations), 4°C, gated on CD3+ (and CD4+, CD8+, Treg); settings: one partner purified
T7 construct: human OX40 (CD134/TNFRSF4), endogenous on T cells; also called physiologically expressed hOX40; source: endogenous, hPBMCs of healthy donors stimulated 24 h with PHA-L and IL-2 (CD3+ T cells)

[9] = target: hOX40-Nbs with KD values in the pico- to low nanomolar range (O12, O18 and O19); assay: BLI; biotinylated Nb (5 µg/mL) immobilised on streptavidin biosensors; hOX40 dilution series 0.2 nM - 320 nM, association 300 s, dissociation 720 s; Octet buffer (PBS, 0.1% BSA, 0.02% Tween20); 1:1 ligand-binding model, global fitting

- koff [1]: 0.00117 s⁻¹
B1: hOX40-Nb O7 (VHH)
VHH: DVQLVESGGGLVQPGGSLRLSCAASGFTFGSYAMGWARQVPGKGLEWVSGIYSDGSTYYADSVKGRFTISRDNAKNTVYLQMNSLKPEDTAVYYCATWGAAAPYDYWGQGTQVTVSS
modifications: biotin where immobilised in BLI (site not stated)

- Kd [2]: ~150 nM
B2: hOX40-Nb O7 (VHH)
VHH: DVQLVESGGGLVQPGGSLRLSCAASGFTFGSYAMGWARQVPGKGLEWVSGIYSDGSTYYADSVKGRFTISRDNAKNTVYLQMNSLKPEDTAVYYCATWGAAAPYDYWGQGTQVTVSS
notes: source: E. coli XL-1 (pHEN6), purified (IMAC, SEC)

- Kd [3]: 5.99 nM
B3: AF647-labeled hOX40-Nb O7 (VHH)
VHH: DVQLVESGGGLVQPGGSLRLSCAASGFTFGSYAMGWARQVPGKGLEWVSGIYSDGSTYYADSVKGRFTISRDNAKNTVYLQMNSLKPEDTAVYYCATWGAAAPYDYWGQGTQVTVSS
modifications: C-terminal Gly-Gly-Gly-propyl-azide attached by sortase A and clicked to DBCO-AF647 (labeling ratio 1:1)

- binding result [4]: binds
B4: AF647-labeled hOX40-Nb O7 (VHH)
VHH: DVQLVESGGGLVQPGGSLRLSCAASGFTFGSYAMGWARQVPGKGLEWVSGIYSDGSTYYADSVKGRFTISRDNAKNTVYLQMNSLKPEDTAVYYCATWGAAAPYDYWGQGTQVTVSS
notes: Uncoupled Nb was removed by Ni-NTA, so the His tag is probably lost on sortase coupling (surmised); also called fluorescent Nb O7; source: E. coli XL-1, purified; sortase A coupling, click labelling with DBCO-AF647, HIC

- koff [1]: 0.00075 s⁻¹
- Kd [5]: 1.93 nM
B5: hOX40-Nb O18 (VHH)
VHH: QVQLVESGGGLVQPGGSLRLSCAASGFTLEDYVIGWFRQAPGKEREEVSCISGSGGIRNVADSMEGRATISRDNAKNTVYLQMNSLKPEDTAVYYCAAGFETSYSYSYYCGVHEYDYWGQGTLVTVSS
modifications: biotin where immobilised in BLI (site not stated)

- fold signal intensity in HT1080-hOX40 over HT1080-WT tumors, 6 h post injection [6]: ~7 fold
- Kd [7]: ~0.3 nM
B6: AF647-labeled hOX40-Nb O18 (VHH)
VHH: QVQLVESGGGLVQPGGSLRLSCAASGFTLEDYVIGWFRQAPGKEREEVSCISGSGGIRNVADSMEGRATISRDNAKNTVYLQMNSLKPEDTAVYYCAAGFETSYSYSYYCGVHEYDYWGQGTLVTVSS
notes: Uncoupled Nb was removed by Ni-NTA, so the His tag is probably lost on sortase coupling (surmised); also called O18_(AF647); fluorescently-labeled Nb O18; source: E. coli XL-1, purified; sortase A coupling, click labelling with DBCO-AF647, HIC

- koff [1]: 0.00021 s⁻¹
- Kd [5]: 3.41 nM
B7: hOX40-Nb O19 (VHH)
VHH: QVQLQESGGGLVQPGGSLRLSCAGSTDTFSMSAAVSWARQAPGKGLEWVSSILSDGSTYYADSVRGRFTISRDNANNTGSLQMNNLKVEDTAVYYCTNLRGRLWSNHKDDYGGQGSRVTVSS
modifications: biotin where immobilised in BLI (site not stated)

- binding result [8]: binds
- binding result [7]: binds
B8: AF647-labeled hOX40-Nb O19 (VHH)
VHH: QVQLQESGGGLVQPGGSLRLSCAGSTDTFSMSAAVSWARQAPGKGLEWVSSILSDGSTYYADSVRGRFTISRDNANNTGSLQMNNLKVEDTAVYYCTNLRGRLWSNHKDDYGGQGSRVTVSS
notes: Uncoupled Nb was removed by Ni-NTA, so the His tag is probably lost on sortase coupling (surmised); also called fluorescent Nb O19; source: E. coli XL-1, purified; sortase A coupling, click labelling with DBCO-AF647, HIC

- Kd [3]: 9.95 nM
B9: AF647-labeled hOX40-Nb O19 (VHH)
VHH: QVQLQESGGGLVQPGGSLRLSCAGSTDTFSMSAAVSWARQAPGKGLEWVSSILSDGSTYYADSVRGRFTISRDNANNTGSLQMNNLKVEDTAVYYCTNLRGRLWSNHKDDYGGQGSRVTVSS
modifications: C-terminal Gly-Gly-Gly-propyl-azide attached by sortase A and clicked to DBCO-AF647 (labeling ratio 1:1)

- binding result [2]: binds
B10: hOX40-Nb O19 (VHH)
VHH: QVQLQESGGGLVQPGGSLRLSCAGSTDTFSMSAAVSWARQAPGKGLEWVSSILSDGSTYYADSVRGRFTISRDNANNTGSLQMNNLKVEDTAVYYCTNLRGRLWSNHKDDYGGQGSRVTVSS
notes: as for B2

- Kd [9]: 0.2 to 3.4 nM
B11: recombinant hOX40, extracellular part (Leu 29 - Ala 216) (domain or fragment)
chain: LHCVGDTYPSNDRCCHECRPGNGMVSRCSRSQNTVCRPCGPGFYNDVVSSKPCKPCTWCNLRSGSERKQLCTATQDTVCRCRAGTQPLDSYKPGVDCAPCPPGHFSPGDNQACKPWTNCTLAGKHTLQPASNSSDAICEDRDPPATQPQETQGPPARPITVQPTEAWPRTSQGPSTRPVEVPGGRAVA

- koff [1]: 2e-05 s⁻¹
- Kd [5]: 0.21 nM
B12: hOX40-Nb O12 (VHH)
VHH: DVQLQESGGGLVQPGGSLRLSCAASGFTLDNYAIGWFRQAPGKEREGVSCISSSGESTNYADSVKGRFTISRDNAKNTVYLQTNSLKPEDTAVYYCAAVDDIGTTVQFMCNMGPYEYDYWGQGSPVTVSS
modifications: biotin where immobilised in BLI (site not stated)

- Kd [3]: 0.07 nM
B13: AF647-labeled hOX40-Nb O12 (VHH)
VHH: DVQLQESGGGLVQPGGSLRLSCAASGFTLDNYAIGWFRQAPGKEREGVSCISSSGESTNYADSVKGRFTISRDNAKNTVYLQTNSLKPEDTAVYYCAAVDDIGTTVQFMCNMGPYEYDYWGQGSPVTVSS
modifications: C-terminal Gly-Gly-Gly-propyl-azide attached by sortase A and clicked to DBCO-AF647 (labeling ratio 1:1)

- Kd [7]: ~0.1 nM
B14: AF647-labeled hOX40-Nb O12 (VHH)
VHH: DVQLQESGGGLVQPGGSLRLSCAASGFTLDNYAIGWFRQAPGKEREGVSCISSSGESTNYADSVKGRFTISRDNAKNTVYLQTNSLKPEDTAVYYCAAVDDIGTTVQFMCNMGPYEYDYWGQGSPVTVSS
notes: Uncoupled Nb was removed by Ni-NTA, so the His tag is probably lost on sortase coupling (surmised); also called fluorescent Nb O12; source: E. coli XL-1, purified; sortase A coupling, click labelling with DBCO-AF647, HIC
